Data reported in publication PMC2192030.

Biological target: Xenopus Mad1 (Xenopus (endogenous in Xenopus egg extract))
Test: co-IP

percent of Mad2 removed by immunodepletion of Mad1: 20 to 40%
Substance: Xenopus Mad2 (natural protein)
